US20230151373A1, “CHIMERIC POLYPEPTIDE FOR REGULATING IMMUNE CELLS” (STICHTING HET NEDERLANDS KANKER INSTITUUT-ANTONI VAN …, priority 2019, published 2023)

Test system: primary human T cells modified with the HLA class I restricted CDK4 TCR
Experiment: Cytokine release and degranulation assay, CDK4 TCR T cells co-cultured with CDK4 peptide loaded T2 cells
Format: cell-based
Experimental: For use as T cell targets, T2 and CBH 5477 cells were loaded with the indicated concentrations of HLA-A*02:01 restricted mutant CDK4 peptide (ALDPHSGHFV), HLA A*02:01 restricted NY-ESO-1 peptide (SLLMWITQA), or HLA-DR1 restricted CMV peptide (KYQEFFWDANDIYRI) in IMDM for 1 hour at 37° C. Cells were then washed once and used in co-culture experiments.
T cells and NK cells were pretreated with the indicated concentrations of asunaprevir (MedChemExpress, #HY-14434), grazoprevir (MedChemExpress, #HY-15298), dTAG-13 (Tocris, #6605) or DMSO control in T cell media (RPMI/10% human serum/penicillin-streptomycin, 100 IU/ml IL2 and 5 ng/ml IL15) or NK cell media (RPMI/8% FCS/penicillin-streptomycin, 500 IU/ml IL2), respectively, for 24 hours before co-culture experiments. 100,000 T cells or NK cells and 100,000 of indicated tumor cells were mixed in T cell or NK cell media supplemented with golgi-plug (1:1000 dilution, BD, #51-2301KZ) and anti-LAMP1-APC (1:100 dilution, Biolegend, #328620) in the presence of indicated drugs or DMSO control in 96-well plates and incubated for 5 hours at 37° C.
After incubation, cells were washed once with PBS and stained with IR dye (Invitrogen, #L34976) at 1:400 dilution for 5 minutes at 4° C. Subsequently, cells were washed once with FACS buffer (PBS plus 0.5% BSA) and stained with anti-CD8-PerCP Cy5.5 (1:20 dilution, BD, #341050), anti-CD4 BV711 (1:50 dilution, Biolegend, #317440), anti-murine constant TCR-PE (in experiments with transduced TCRs, 1:200 dilution, BD, #553172) or cetuximab-PE (in experiments with transduced CAR construct containing truncated human EGFR reporter, 1:200 dilution, R&D Systems, #FAB9577P) for 20 minutes at 4° C. Cells were then washed once with FACS buffer and fixed with BD fixation and permeabilization solution (#51-2090KZ) for 20 minutes at 4° C.
Following permeabilization, cells were washed twice with BD perm/wash buffer (#51-2091KZ) and stained with anti-IFNγ-BV421 (1:100 dilution, BD, #564791), anti-IL-2-PE-Cy7 (1:100 dilution, BD, #560707) and anti-TNFα-BV650 (1:100 dilution, Biolegend, #502938) diluted in perm/wash buffer for 20 min at 4° C. Cells were then washed twice, resuspended in 100 μl FACS buffer and analyzed directly on a Fortessa Special Order analyzer. Data were analyzed using FlowJo and Prism 7 software.

[1] = T cells co-cultured with 10 nM peptide loaded T2 tumor cells, relative to vector control

Molecule | reduction in percentage responding cells, IFNγ [1] [fold] | reduction in percentage responding cells, IL-2 [1] [fold] | reduction in percentage responding cells, TNFα [1] [fold] | reduction in percentage responding cells, cell surface LAMP1 [1] [fold] | effect of construct expression on T cell cytokine production and degranulation (no drug, T2 cells loaded with CDK4 neoantigen)
Zap70-PD1: human Zap70 fragment (1-264 aa), a GGS linker, the human PD1 intracellular domain (192-288 aa) (protein) MPDPAAHLPFFYGSISRAEAEEHLKLAGMADGLFLLRQCLRSLGGYVLSLVHDVRFHHFPIERQLNGTYAIAGGKAHCGPAELCEFYSRDPDGLPCNLRKPCNRPSGLEPQPGVFDCLRDAMVRDYVRQTWKLEGEALEQAIISQAPQVEKLIATTAHERMPWYHSSLTREEAERKLYSGAQTDGKFLLRPRKEQGTYALSLIYGKTVYHYLISQDKAGKYCIPEGTKFDTLWQLVEYLKLKADGLIYCLKEACPNSSASNASGGGSCSRAARGTIGARRTGQPLKEDPSAVPVFSVDYGELDFQWREKTPEPPVPCVPEQTEYATIVFPSGMGTSSPARRGSADGPRSAQPLRPEDGHCSWPL | 104 | 110 | 81 | 40 | –
Zap70 2×SH2: the Zap70 SH2 domains without inhibitory tail; human Zap70 (P43403, 1-264 aa) (protein, UniProt P43403 1-264, looked up, fragment) MPDPAAHLPFFYGSISRAEAEEHLKLAGMADGLFLLRQCLRSLGGYVLSLVHDVRFHHFPIERQLNGTYAIAGGKAHCGPAELCEFYSRDPDGLPCNLRKPCNRPSGLEPQPGVFDCLRDAMVRDYVRQTWKLEGEALEQAIISQAPQVEKLIATTAHERMPWYHSSLTREEAERKLYSGAQTDGKFLLRPRKEQGTYALSLIYGKTVYHYLISQDKAGKYCIPEGTKFDTLWQLVEYLKLKADGLIYCLKEACPNSSASNASG | – | – | – | – | modest inhibition of T cell functions
